From patent US20050271676A1, “Inducing cellular immune responses to human immunodeficiency virus-1 using peptide and nucleic acid compositions” (Epimmune Inc., priority 1993, published 2005)

Experiments:
HLA-A*1101 = HLA-A*1101 (Homo sapiens, UniProt P04439, A114D/D185E/E176A/F33Y/L180Q/S129P/T187R); assay: purified HLA class I binding assay, A*1101; conditions: for A*1101 (HIV A11 Motif Peptides with Binding Information): binding value to purified HLA-A*1101 in Table XVII; for A*1101 binding: HIV A11 motif peptides (GAG)
HLA-B*0702 = biological target: T1, HLA-B*0702 (Homo sapiens, UniProt P01889); assay: purified HLA class I binding assay, B*0702; conditions: for B*0702 binding (HIV B07 Super Motif Peptides with Binding Information): purified HLA-B*0702, binding value without unit; for B*0702 (binding information): HIV B07 supermotif peptides, binding value for purified HLA-B*0702, unit not given
T1 construct: endogenous in cells; host or cells: GM3107

HLA-A*0301 = biological target: T2, HLA-A*0301 (Homo sapiens, UniProt P04439); assay: purified HLA class I binding assay, A*0301; conditions: for A*0301 binding information: HIV A03 supermotif peptides; for A0301 (binding information): HIV A03 motif peptides; for A0301 (binding information) / A0301 (binding information, HIV A03 motif peptides): Table XVI
T2 construct: endogenous in cells; host or cells: GM3107

HLA-A*0201 = HLA-A*0201 (Homo sapiens, UniProt P04439, D140Y/D185E/D98H/E176V/E277Q/G131W/G231S/I119V/I121R/I166T/I218V/L300P/L318F/N151K/N90K/P208A/P217A/Q86G/Q94H/R138H/R169H/T345S); assay: purified HLA class I binding assay, A*0201; conditions: Table VIII, unit not given
[1] = binding value to purified HLA-A*0301, unit not given
[2] = HIV A02 Super Motif Peptides with Binding Information
[3] = HIV POL-derived peptides, unit not given
[4] = Table XVII, HIV A11 motif peptides, binding value A*1101, unit not given
[5] = HIV POL-derived A03 motif peptides, binding value for purified HLA-A*0301, unit not given

AANREIKLGK
A*1101 (HIV A11 Motif Peptides with Binding Information) (HLA-A*1101; unit not given): 0.0016

ANRIETKLGK
A*1101 (HIV A11 Motif Peptides with Binding Information) (HLA-A*1101; unit not given): 0.0001

APTKAKRRVV
B*0702 binding (HIV B07 Super Motif Peptides with Binding Information) (HLA-B*0702): 0.1200

ATLYCVIIQR
A*0301 binding information (HLA-A*0301; Table IX, unit not given): 0.0150 | A0301 (HIV A03 Motif Peptides with Binding Information) (HLA-A*0301; [1]): 0.0150 | A*1101 (binding information) (HLA-A*1101; HIV A03 supermotif peptides, Table IX, unit not given): 0.7100 | A*1101 binding (HLA-A*1101; Table XVII, unit not given): 0.7100

ATWIPCWEFV
A*0201 (binding information) (HLA-A*0201; HIV A02 supermotif peptides): 0.0013

AVDLSIIFLK
A0301 (binding information) (HLA-A*0301; [1]): 0.0740 | A*1101 (binding information) (HLA-A*1101; HIV A11 motif peptides, Table XVII, unit not given): 1.1000

CVKLTPLCV
A*0201 (binding information) (HLA-A*0201; [2]): 0.0002

CVKLTPLCVT
A*0201 (binding information) (HLA-A*0201; HIV A02 super motif peptides): 0.0001

DPEIVMIISF
B*0702 binding (HIV B07 Super Motif Peptides with Binding Information) (HLA-B*0702): 0.0001

DTEVIINVWA
A*0201 (binding information) (HLA-A*0201; [2]): 0.0001

DTEYIINVWAT
A*0201 (binding information) (HLA-A*0201; HIV A02 super motif peptides): 0.0001

DVKQLTEAVQ
A0301 (binding information, HIV A03 motif peptides) (HLA-A*0301; [3]): 0.0048 | A*1101 (HIV A11 Motif Peptides with Binding Information) (HLA-A*1101; unit not given): 0.0240

EILKEPVIIGV
A*0201 (binding information) (HLA-A*0201; HIV A02 supermotif peptides): 0.0007

ELQAIIILAL
A*0201 (binding information) (HLA-A*0201; HIV A02 super motif peptides): 0.0001

EPFKNLKTGK
B*0702 (binding information) (HLA-B*0702): 0.0001

EPFRDYVDRP
B*0702 binding (HIV B07 Super Motif Peptides with Binding Information) (HLA-B*0702): 0.00012

EPFREYVIIRF
B*0702 binding (HIV B07 Super Motif Peptides with Binding Information) (HLA-B*0702): 0.0001

EPIPIIIYCA
B*0702 binding (HIV B07 Super Motif Peptides with Binding Information) (HLA-B*0702): 0.0001

EPIVGAEIP
B*0702 (binding information) (HLA-B*0702): 0.0001

EPPFLWMGYE
B*0702 (binding information) (HLA-B*0702): 0.0001

EPVDPRLEPW
B*0702 (binding information) (HLA-B*0702): 0.0001

EPVIIGVYY
B*0702 binding (HIV B07 Super Motif Peptides with Binding Information) (HLA-B*0702): 0.0001

EVIINVWATIIA
A*0201 (binding information) (HLA-A*0201; HIV A02 super motif peptides): 0.0001

FLGKIWPSIIK
A0301 (binding information) (HLA-A*0301; binding value unit not given): 0.0200 | A*1101 binding (HLA-A*1101; Table XVII, unit not given): 0.0013

FVNIPPLVK
A*1101 (binding information) (HLA-A*1101; [4]): 0.0660

GIIQAQVDK
A0301 (binding information, HIV A03 motif peptides) (HLA-A*0301; [3]): 0.0009

GIPIIPAGLK
A*1101 (binding information) (HLA-A*1101; [4]): 0.0650

GIPIIPAGLKK
A0301 (HIV A03 Motif Peptides with Binding Information) (HLA-A*0301; [5]): 0.0110 | A*1101 (binding information) (HLA-A*1101; [4]): 0.1700

GIRYQYNYL
A*0201 (binding information) (HLA-A*0201; HIV A02 super motif peptides): 0.0001

GPAATLEEMM
B*0702 binding (HIV B07 Super Motif Peptides with Binding Information) (HLA-B*0702): 0.0020

GPGIIKARV
B*0702 binding (HIV B07 Super Motif Peptides with Binding Information) (HLA-B*0702): 0.0002

GPGIIKARVLA
B*0702 binding (HIV B07 Super Motif Peptides with Binding Information) (HLA-B*0702): 0.0002

GPKVKQWPL
B*0702 (binding information) (HLA-B*0702): 0.0150

HPAGLKKKKS
B*0702 (binding information) (HLA-B*0702): 0.0001

HPVIIAGPI
B*0702 binding (HIV B07 Super Motif Peptides with Binding Information) (HLA-B*0702): 0.0012

IIGVYYDPSK
A*1101 (binding information) (HLA-A*1101; [4]): 0.0001

IILALQDSGL
A*0201 (binding information) (HLA-A*0201; HIV A02 super motif peptides): 0.0005

IILKTAVQMAV
A*0201 (binding information) (HLA-A*0201; HIV A02 supermotif peptides): 0.0005

IIPDKWTVQPI
B*0702 (binding information) (HLA-B*0702): 0.0012

IIPGSQPKTA
B*0702 (binding information) (HLA-B*0702): 0.0007

IIPRISSEVHI
B*0702 (binding information) (HLA-B*0702): 0.0330

IIPVIIAGPIA
B*0702 binding (HIV B07 Super Motif Peptides with Binding Information) (HLA-B*0702): 0.0590

IIVASGYIEA
A0301 (HIV A03 Motif Peptides with Binding Information) (HLA-A*0301; [5]): 0.0003

ILKEPVIIGV
A*0201 (binding information) (HLA-A*0201; HIV A02 super motif peptides): 0.0055

ILQQLLFIIIF
A0301 (binding information, HIV A03 motif peptides) (HLA-A*0301; binding value for HLA-A*0301, unit not given): 0.0130

IPIIIYCAPA
B*0702 binding (HIV B07 Super Motif Peptides with Binding Information) (HLA-B*0702): 0.0130

IPMFSALSIEGA
B*0702 binding (HIV B07 Super Motif Peptides with Binding Information) (HLA-B*0702): 0.0004

IPVGEIYKRW
B*0702 binding (HIV B07 Super Motif Peptides with Binding Information) (HLA-B*0702): 0.0002

ISPILTVPVK
A*1101 (binding information) (HLA-A*1101; [4]): 0.0310

IVASCDKCQL
A*0201 (binding information) (HLA-A*0201; HIV A02 supermotif peptides): 0.0006

IVASCDKCQLK
A*0301 binding information (HLA-A*0301; binding value, no unit given): 0.0970 | A0301 (HIV A03 Motif Peptides with Binding Information) (HLA-A*0301; [5]): 0.0970 | A*1101 (binding information) (HLA-A*1101; HIV A03 supermotif peptides, binding value, no unit given): 0.1000 | A*1101 (binding information) (HLA-A*1101; [4]): 0.1000
